Results as given in PMC2801285.

Target: CaV2.1 (full-length) (UniProt P54282)

Row | Substance | inhibition of peak IBa (CaV2.1/α2δ-2/β4) on co-expression in Xenopus oocytes | reduction of peak IBa (CaV2.1/α2δ-2/β4) on co-expression in Xenopus oocytes
1 | CaV2.1 N terminus (residues 1–100) (from UniProt P54282 1-100) (domain or fragment) | 37.9 % inhibition | –
2 | CaV2.1 N terminus-CAAX (from UniProt P54282 1-100) (domain or fragment) | – | 43.8 % reduction
